According to US7202212 (BETH ISRAEL DEACONESS MEDICAL CENTER, dated 2007):

Target: T1, mouse α7 subunit of the 20S proteasome, full length (mouse, UniProt O70435 1-255)
T1 construct: also called a7; full length a7 construct
T1 sequence (looked up): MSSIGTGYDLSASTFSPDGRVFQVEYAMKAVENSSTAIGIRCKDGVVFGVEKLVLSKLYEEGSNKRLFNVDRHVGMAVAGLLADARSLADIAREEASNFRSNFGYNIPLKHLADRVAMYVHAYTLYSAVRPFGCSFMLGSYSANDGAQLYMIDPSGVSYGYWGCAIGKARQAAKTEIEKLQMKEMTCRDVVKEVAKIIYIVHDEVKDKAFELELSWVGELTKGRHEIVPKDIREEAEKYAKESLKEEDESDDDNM
Test: yeast two-hybrid screen of a mouse cDNA library with PR-39 exon 4 as bait
Description: To identify possible intracellular targets of PR-39 peptide action, a yeast two-hybrid screen of mouse cDNA library was performed using the unique 4th exon DNA sequence of porcine PR-39 gene as "bait". […] All four clones encoded overlapping identical cDNA sequences which are highly homologous to the sequence of the human α7 (HC8) subunit of the 20S proteasome (GeneBank accession AF055983).

B1: porcine PR-39 peptide (4th exon, amino acids 131 to 169) in pAS2-1 vector as yeast two-hybrid bait (peptide, not shown: large carriers)
chain: RRRPRPPYLPRPRPPPFFPPRLPPRIPPGFPPRFPPRFP
notes: Bait of the yeast two-hybrid assay; The 39 residues are amino acids 131 to 169 of the porcine precursor; also called PR-39 construct
  binding result: binds
